Assay results as given in patent publication US20210347913A1 (CRISPR THERAPEUTICS, published 2021).

T1: PTK7 on PTK7 positive cell line SaOS-2 (osteosarcoma) (UniProt Q13308 31-1070, limits assumed)
T1 sequence (looked up): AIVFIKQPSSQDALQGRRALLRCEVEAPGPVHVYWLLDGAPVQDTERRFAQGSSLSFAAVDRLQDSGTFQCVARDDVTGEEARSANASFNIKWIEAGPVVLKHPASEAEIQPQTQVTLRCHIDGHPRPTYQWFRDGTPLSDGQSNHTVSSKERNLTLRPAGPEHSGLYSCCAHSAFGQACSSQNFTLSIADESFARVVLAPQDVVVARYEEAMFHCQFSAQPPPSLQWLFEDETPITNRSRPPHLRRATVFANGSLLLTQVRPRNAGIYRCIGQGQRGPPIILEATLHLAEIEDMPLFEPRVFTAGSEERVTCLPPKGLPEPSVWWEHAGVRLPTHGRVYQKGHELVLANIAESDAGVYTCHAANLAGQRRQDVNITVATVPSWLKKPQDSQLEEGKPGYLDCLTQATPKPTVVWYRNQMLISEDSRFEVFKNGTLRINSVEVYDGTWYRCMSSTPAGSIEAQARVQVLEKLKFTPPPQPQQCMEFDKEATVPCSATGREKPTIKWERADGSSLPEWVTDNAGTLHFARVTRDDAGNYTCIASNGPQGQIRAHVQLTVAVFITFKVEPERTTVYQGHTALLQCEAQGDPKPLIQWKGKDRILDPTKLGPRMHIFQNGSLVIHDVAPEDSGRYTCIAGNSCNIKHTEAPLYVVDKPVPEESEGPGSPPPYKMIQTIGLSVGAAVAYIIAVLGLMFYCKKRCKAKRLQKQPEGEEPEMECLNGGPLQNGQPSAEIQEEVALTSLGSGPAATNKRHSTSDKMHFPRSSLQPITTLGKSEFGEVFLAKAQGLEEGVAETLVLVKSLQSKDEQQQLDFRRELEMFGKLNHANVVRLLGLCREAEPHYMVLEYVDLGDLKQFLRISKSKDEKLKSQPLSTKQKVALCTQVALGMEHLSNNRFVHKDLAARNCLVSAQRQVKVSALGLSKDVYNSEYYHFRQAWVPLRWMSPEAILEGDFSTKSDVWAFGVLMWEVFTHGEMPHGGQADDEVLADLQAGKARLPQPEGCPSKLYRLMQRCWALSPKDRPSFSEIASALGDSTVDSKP

T2: recombinant human PTK7.Fc (R and D Systems, catalog #9799-TK) (human, UniProt Q13308 31-704, limits assumed)
T2 construct: Bought reagent; also called soluble recombinant human PTK7.Fc; soluble antigen PTK7; not shown: Fc part of the bought fusion (detected with anti-human Fc)
T2 sequence (looked up): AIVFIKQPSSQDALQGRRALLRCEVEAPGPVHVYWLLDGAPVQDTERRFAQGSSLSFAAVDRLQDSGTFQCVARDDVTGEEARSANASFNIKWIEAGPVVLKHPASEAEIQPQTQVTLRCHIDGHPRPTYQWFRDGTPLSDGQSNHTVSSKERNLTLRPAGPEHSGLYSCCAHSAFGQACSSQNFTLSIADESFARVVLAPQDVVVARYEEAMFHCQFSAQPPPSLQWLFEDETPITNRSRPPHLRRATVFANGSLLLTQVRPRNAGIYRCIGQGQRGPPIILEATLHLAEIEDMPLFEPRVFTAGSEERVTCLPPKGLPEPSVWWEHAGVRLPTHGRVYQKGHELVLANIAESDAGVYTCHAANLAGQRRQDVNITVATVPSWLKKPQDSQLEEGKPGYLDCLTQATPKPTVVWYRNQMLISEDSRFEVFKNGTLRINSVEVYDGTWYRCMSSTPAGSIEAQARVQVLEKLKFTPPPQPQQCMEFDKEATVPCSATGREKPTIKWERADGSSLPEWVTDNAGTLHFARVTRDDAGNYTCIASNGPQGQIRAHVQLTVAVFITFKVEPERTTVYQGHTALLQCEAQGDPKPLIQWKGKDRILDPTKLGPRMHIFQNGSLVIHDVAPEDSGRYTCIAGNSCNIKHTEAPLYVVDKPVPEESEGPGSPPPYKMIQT


What was measured:
[1] = biological target: T1, PTK7 on PTK7 positive cell line SaOS-2 …; experiment: cell-based or functional assay
[2] = biological target: T1, PTK7 on PTK7 positive cell line SaOS-2 …; experiment: cell-based or functional assay; remark: listed apart in the source
[3] = biological target: T2, recombinant human PTK7.Fc (R and D …); experiment: flow cytometry, percent of CAR T cells positive for 10 ug/mL PTK7.Fc
Experimental: In addition to detecting surface CAR expression, the ability of the CAR T cells and masked CAR T cells to detect target antigen was also determined. Live CAR T cells were gated by their forward scatter (FSC) and side scatter (SSC) profiles, and with DAPI dye (Invitrogen, catalog #: D3571). The cells were then stained with 10 μg/mL recombinant human PTK7.Fc (R and D Systems, catalog #9799-TK Lot DHMCO219041) as described above in Example 3, and with mouse anti-human.Fc conjugated to APC (Biolegend cat #409305) as secondary antibody for detection (FIG. 3).

Row | IFNγ (pg/mL) at E:T = 1:0.5 [1] | IFNγ (pg/mL) at E:T = 1:1 [1] | % Antigen detection [3] | Binder | % Cell killing at E:T = 1:0.5 [2] | % Cell killing at E:T = 1:1 [2]
1 | 735 pg/mL | 715 pg/mL | 14.7% | CTX181.M6 (other, Masked chimeric antigen receptor on the surface of TRAC-/B2M- human T cells; entry without signal peptide) QGVCTYPPAHRTRFCGSSGGSGGSGGSGGGPLGLAGGSSGQVQLVESGGGVVQPGRSLRLSCAASGFTFSSYGMHWVRQAPGKGLEWVAVIWDDGSNKYYVDSVKGRFTISRDNSKNTLYLQMNSLRAEDTAVYYCARDDYYGSGSFNSYYGTDVWGQGTTVTVSSGGGGSGGGGSGGGGSEIVLTQSPATLSLSPGERATLSCRASQSVSIYLAWYQQKPGQAPRLLIYDASNRATGIPARFSGSGSGTDFTLTISSLEPEDFAVYYCQQRSNWPPFTFGPGTKVDIKSAAAFVPVFLPAKPTTTPAPRPPTPAPTIASQPLSLRPEACRPAAGGAVHTRGLDFACDIYIWAPLAGTCGVLLLSLVITLYCNHRNRSKRSRLLHSDYMNMTPRRPGPTRKHYQPYAPPRDFAAYRSRVKFSRSADAPAYQQGQNQLYNELNLGRREEYDVLDKRRGRDPEMGGKPRRKNPQEGLYNELQKDKMAEAYSEIGMKGERRRGKGHDGLYQGLSTATKDTYDALHMQALPPR | 42.4% | 13.9%
2 | 4860 pg/mL | 6170 pg/mL | 37.5% | CTX181.M13 (other, Masked chimeric antigen receptor on the surface of TRAC-/B2M- human T cells; entry without signal peptide) QGCTYPPRFHMHWLCGSSGGSGGSGGSGGGPLGLAGGSSGQVQLVESGGGVVQPGRSLRLSCAASGFTFSSYGMHWVRQAPGKGLEWVAVIWDDGSNKYYVDSVKGRFTISRDNSKNTLYLQMNSLRAEDTAVYYCARDDYYGSGSFNSYYGTDVWGQGTTVTVSSGGGGSGGGGSGGGGSEIVLTQSPATLSLSPGERATLSCRASQSVSIYLAWYQQKPGQAPRLLIYDASNRATGIPARFSGSGSGTDFTLTISSLEPEDFAVYYCQQRSNWPPFTFGPGTKVDIKSAAAFVPVFLPAKPTTTPAPRPPTPAPTIASQPLSLRPEACRPAAGGAVHTRGLDFACDIYIWAPLAGTCGVLLLSLVITLYCNHRNRSKRSRLLHSDYMNMTPRRPGPTRKHYQPYAPPRDFAAYRSRVKFSRSADAPAYQQGQNQLYNELNLGRREEYDVLDKRRGRDPEMGGKPRRKNPQEGLYNELQKDKMAEAYSEIGMKGERRRGKGHDGLYQGLSTATKDTYDALHMQALPPR | 68.6% | 41.3%
3 | 885 pg/mL | 830 pg/mL | 28% | CTX181.M7 (other, Masked chimeric antigen receptor on the surface of TRAC-/B2M- human T cells; entry without signal peptide) QGCTMPYHIHSIGLCGSSGGSGGSGGSGGGPLGLAGGSSGQVQLVESGGGVVQPGRSLRLSCAASGFTFSSYGMHWVRQAPGKGLEWVAVIWDDGSNKYYVDSVKGRFTISRDNSKNTLYLQMNSLRAEDTAVYYCARDDYYGSGSFNSYYGTDVWGQGTTVTVSSGGGGSGGGGSGGGGSEIVLTQSPATLSLSPGERATLSCRASQSVSIYLAWYQQKPGQAPRLLIYDASNRATGIPARFSGSGSGTDFTLTISSLEPEDFAVYYCQQRSNWPPFTFGPGTKVDIKSAAAFVPVFLPAKPTTTPAPRPPTPAPTIASQPLSLRPEACRPAAGGAVHTRGLDFACDIYIWAPLAGTCGVLLLSLVITLYCNHRNRSKRSRLLHSDYMNMTPRRPGPTRKHYQPYAPPRDFAAYRSRVKFSRSADAPAYQQGQNQLYNELNLGRREEYDVLDKRRGRDPEMGGKPRRKNPQEGLYNELQKDKMAEAYSEIGMKGERRRGKGHDGLYQGLSTATKDTYDALHMQALPPR | 37.5% | 10.2%
4 | 884 pg/mL | 887 pg/mL | 30.3% | CTX181.M11 (other, Masked chimeric antigen receptor on the surface of TRAC-/B2M- human T cells; entry without signal peptide) QGCTMPSHAVASFLCGSSGGSGGSGGSGGGPLGLAGGSSGQVQLVESGGGVVQPGRSLRLSCAASGFTFSSYGMHWVRQAPGKGLEWVAVIWDDGSNKYYVDSVKGRFTISRDNSKNTLYLQMNSLRAEDTAVYYCARDDYYGSGSFNSYYGTDVWGQGTTVTVSSGGGGSGGGGSGGGGSEIVLTQSPATLSLSPGERATLSCRASQSVSIYLAWYQQKPGQAPRLLIYDASNRATGIPARFSGSGSGTDFTLTISSLEPEDFAVYYCQQRSNWPPFTFGPGTKVDIKSAAAFVPVFLPAKPTTTPAPRPPTPAPTIASQPLSLRPEACRPAAGGAVHTRGLDFACDIYIWAPLAGTCGVLLLSLVITLYCNHRNRSKRSRLLHSDYMNMTPRRPGPTRKHYQPYAPPRDFAAYRSRVKFSRSADAPAYQQGQNQLYNELNLGRREEYDVLDKRRGRDPEMGGKPRRKNPQEGLYNELQKDKMAEAYSEIGMKGERRRGKGHDGLYQGLSTATKDTYDALHMQALPPR | 20.1% | 12.7%
5 | 2110 pg/mL | 1880 pg/mL | 28% | CTX181.M10 (other, Masked chimeric antigen receptor on the surface of TRAC-/B2M- human T cells; entry without signal peptide) QGCYIGLRMVPCFHMGSSGGSGGSGGSGGGPLGLAGGSSGQVQLVESGGGVVQPGRSLRLSCAASGFTFSSYGMHWVRQAPGKGLEWVAVIWDDGSNKYYVDSVKGRFTISRDNSKNTLYLQMNSLRAEDTAVYYCARDDYYGSGSFNSYYGTDVWGQGTTVTVSSGGGGSGGGGSGGGGSEIVLTQSPATLSLSPGERATLSCRASQSVSIYLAWYQQKPGQAPRLLIYDASNRATGIPARFSGSGSGTDFTLTISSLEPEDFAVYYCQQRSNWPPFTFGPGTKVDIKSAAAFVPVFLPAKPTTTPAPRPPTPAPTIASQPLSLRPEACRPAAGGAVHTRGLDFACDIYIWAPLAGTCGVLLLSLVITLYCNHRNRSKRSRLLHSDYMNMTPRRPGPTRKHYQPYAPPRDFAAYRSRVKFSRSADAPAYQQGQNQLYNELNLGRREEYDVLDKRRGRDPEMGGKPRRKNPQEGLYNELQKDKMAEAYSEIGMKGERRRGKGHDGLYQGLSTATKDTYDALHMQALPPR | 32.7% | 25.8%
6 | 400 pg/mL | 443 pg/mL | 20.2% | CTX181.M8 (other, Masked chimeric antigen receptor on the surface of TRAC-/B2M- human T cells; entry without signal peptide) QGWCTIPSSMSIRLCGSSGGSGGSGGSGGGPLGLAGGSSGQVQLVESGGGVVQPGRSLRLSCAASGFTFSSYGMHWVRQAPGKGLEWVAVIWDDGSNKYYVDSVKGRFTISRDNSKNTLYLQMNSLRAEDTAVYYCARDDYYGSGSFNSYYGTDVWGQGTTVTVSSGGGGSGGGGSGGGGSEIVLTQSPATLSLSPGERATLSCRASQSVSIYLAWYQQKPGQAPRLLIYDASNRATGIPARFSGSGSGTDFTLTISSLEPEDFAVYYCQQRSNWPPFTFGPGTKVDIKSAAAFVPVFLPAKPTTTPAPRPPTPAPTIASQPLSLRPEACRPAAGGAVHTRGLDFACDIYIWAPLAGTCGVLLLSLVITLYCNHRNRSKRSRLLHSDYMNMTPRRPGPTRKHYQPYAPPRDFAAYRSRVKFSRSADAPAYQQGQNQLYNELNLGRREEYDVLDKRRGRDPEMGGKPRRKNPQEGLYNELQKDKMAEAYSEIGMKGERRRGKGHDGLYQGLSTATKDTYDALHMQALPPR | 15.4% | 3.9%
